Laboratory results: paper PMC10471779 (2023)

T1: recombinant rat galectin-3 (rat, UniProt P08699 1-262)
T1 chain: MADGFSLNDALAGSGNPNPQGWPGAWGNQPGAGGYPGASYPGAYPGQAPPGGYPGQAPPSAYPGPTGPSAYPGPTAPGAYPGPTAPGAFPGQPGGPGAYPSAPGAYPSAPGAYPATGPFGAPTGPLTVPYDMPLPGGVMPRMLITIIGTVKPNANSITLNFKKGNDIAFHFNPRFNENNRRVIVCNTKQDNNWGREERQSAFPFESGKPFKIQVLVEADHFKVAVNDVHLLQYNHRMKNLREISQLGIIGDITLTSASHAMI

T2: recombinant mouse galectin-3, full length, His-tagged (mGal-3-FL-His Nter) (mouse, UniProt P16110 1-264)
T2 chain: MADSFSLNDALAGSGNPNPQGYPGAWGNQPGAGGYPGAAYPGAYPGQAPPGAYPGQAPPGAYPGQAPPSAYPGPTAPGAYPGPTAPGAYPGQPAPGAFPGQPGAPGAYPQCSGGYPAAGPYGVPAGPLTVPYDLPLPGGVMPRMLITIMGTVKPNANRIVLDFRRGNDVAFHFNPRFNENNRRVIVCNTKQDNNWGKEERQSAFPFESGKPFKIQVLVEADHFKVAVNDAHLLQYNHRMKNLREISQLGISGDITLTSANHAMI


Key:
Experiment in all cases: SPR
[1] = target: recombinant cynomolgus galectin-3 (cynomolgus)
[2] = target: T1, recombinant rat galectin-3
[3] = target: T2, recombinant mouse galectin-3, full …

Row | Kd [1] [nM] | Kd [2] [nM] | Kd [3] [nM] | Binder
1 | 11.4 | 8.6 |  | D11 anti-Gal-3 monoclonal antibody (hIgG1 format, LALA) (antibody, V domains shown) VH: EVQLVESGGSLVKPGGSLRLSCAASGFTFSNYNMNWVRQAPGKGLEWISSIYGSSRYIYYADFVKGRFTISRDNAKNSLYLQMNSLRAEDTAVYYCVRSSYGGMDVWGRGTLVTVSS VL: QSVLTQPASVSGSPGQSITISCAGTSSDVGGSYNVAWYQQHPGKAPKLMIYYDSYRPSGVSNRFSGSKSGNTASLTISGLQAEDEADYYCSSYTGYSTRVFGGGTKLEIK
2 | 7.1 |  | 4.1 | E07 anti-Gal-3 monoclonal antibody (hIgG1 format, LALA) (antibody, V domains shown) VH: EVQLVESGGSLVKPGGSLRLSCAASGFTFSNYNMNWVRQAPGKGLEWISNIYGSSRYIYYADFVKGRFTISRDNAKNSLYLQMNSLRAEDTAVYYCVRSYYGGMDVWGRGTLVTVSS VL: QSVLTQPASVSGSPGQSITISCAGTSSDVGGYYSVSWYQQHPGKAPKLMIYYDSNRPSGVSNRFSGSKSGNTASLTISGLQAEDEADYYCSSYTGYSTRVFGGGTKLEIK
